Data as given in the supplement of paper PMC10724198.
± gives the standard deviation of the averaged measurements.

Test system: Saccharomyces cerevisiae
Test: protein stability index of tFT-peptide fusion (C-terminal peptide) (PSI (0-1 scale)); higher = more stable (slower turnover)
Conditions: genetic background: wild type; temperature: 30 C
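Further: PSI is a weighted mean of sequencing reads over stability bins, variants kept only with over 10 reads, mCherry proximal and sfGFP distal, peptide attached via GGGS linker.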

Sequence KKKKKTKKKAEK has a protein stability index of 0.701 ± 0.022.
Sequence DETELTQRTKRV has a protein stability index of 0.656 ± 0.017.
For VYFLDPSSPPWF, the protein stability index was 0.752 ± 0.011.
Work on CSVCPGYLFGCA yielded a protein stability index of 0.601 ± 0.025.
LPPTPSSPPPPL was tested, and the protein stability index was 0.709 ± 0.06.
In the case of YLRSMIPKELAV, the protein stability index is reported as 0.605 ± 0.023.
PPCAPPPSPLAC was tested, and the protein stability index was 0.684 ± 0.043.
NPQRGLNAQLFG showed a protein stability index of 0.656 ± 0.045.
Work on CLGSGGRVSRGA yielded a protein stability index of 0.6715 ± 0.0022.
LKDLGKQVVTVR was tested, and the protein stability index was 0.587 ± 0.0062.
TSPLSPAPPPPR showed a protein stability index of 0.641 ± 0.083.
In the case of NKIKKTQKKKLG, the protein stability index is reported as 0.766 ± 0.1.
Sequence PRLPRRTTTIHG has a protein stability index of 0.71 ± 0.035.
Work on PLPPTPPPLAPP yielded a protein stability index of 0.644 ± 0.086.
GSGLWAGLWRAW gave a protein stability index of 0.727 ± 0.078.
WARLHLSGRYSL gave a protein stability index of 0.747 ± 0.02.
For ARGFSAGAIGVG, the protein stability index was 0.646 ± 0.1.
MGKEELDKKDEG gave a protein stability index of 0.625 ± 0.032.
With RILFGALYSSCK the protein stability index was 0.6782 ± 0.0062.
Work on CSRPSLPIYYCS yielded a protein stability index of 0.581 ± 0.028.
With PTIKPSPRFPLS the protein stability index was 0.71 ± 0.021.
Sequence FSAFWLACFFGV has a protein stability index of 0.717 ± 0.062.
GKKYDEAQLRKG gave a protein stability index of 0.709 ± 0.041.
Work on PSRRPPPPPFLP yielded a protein stability index of 0.7 ± 0.036.
Work on SVCSRVLILSPF yielded a protein stability index of 0.657 ± 0.068.
Work on PSNSRPRASPAC yielded a protein stability index of 0.67 ± 0.039.
RHSAQRPRARHP gave a protein stability index of 0.79 ± 0.032.
For SLVLLSACRFGF, the protein stability index was 0.654 ± 0.073.
Sequence SPLAPLPPPPLT has a protein stability index of 0.884 ± 0.1.
Sequence FFFGFFSVLSLG has a protein stability index of 0.606 ± 0.089.
With FQGKRTKQEGVK the protein stability index was 0.692 ± 0.071.
For YSRGVSGSDKFP, the protein stability index was 0.747 ± 0.16.
Sequence HVALPAFKQLSG has a protein stability index of 0.746 ± 0.051.
For APPPHPRHPTHS, the protein stability index was 0.777 ± 0.089.
For LLTGVPRFSLDS, the protein stability index was 0.683 ± 0.014.
For ERINFSRRDFDC, the protein stability index was 0.805 ± 0.059.
NTGGVTRVIGCV showed a protein stability index of 0.704 ± 0.029.
EQDLSTKVKRST showed a protein stability index of 0.65 ± 0.12.
In the case of KNRKTQSNQTKI, the protein stability index is reported as 0.719 ± 0.025.
PDLPHYHPPPPL gave a protein stability index of 0.727 ± 0.011.
With NQAWYFVRLAGD the protein stability index was 0.776 ± 0.022.
PPPSPDPPLTPF gave a protein stability index of 0.723 ± 0.06.
Sequence PHLRTRRPPLLH has a protein stability index of 0.694 ± 0.01.
Work on PPSATPPHPPPS yielded a protein stability index of 0.666 ± 0.052.
With SYPRATPPWMAG the protein stability index was 0.727 ± 0.092.
Work on HPDAGTAARDTD yielded a protein stability index of 0.648 ± 0.092.
For GPRGGGGWSCES, the protein stability index was 0.7366 ± 0.0032.
Sequence GSGRLGGDRVVG has a protein stability index of 0.6578 ± 0.0029.
Sequence KNGLERFTSNRS has a protein stability index of 0.641 ± 0.051.
Sequence RIWEVQFRRLSE has a protein stability index of 0.823 ± 0.074.
Work on GSNCQVRMSIHR yielded a protein stability index of 0.703 ± 0.011.
PNSSLLNLPRPP gave a protein stability index of 0.744 ± 0.041.
With APPPPPPAPQPP the protein stability index was 0.619 ± 0.067.
SLATFRTLLPES was tested, and the protein stability index was 0.667 ± 0.019.
SPPSLRLPPPPA showed a protein stability index of 0.772 ± 0.021.
Work on DPAASNTTTRRL yielded a protein stability index of 0.686 ± 0.064.
LLLPPPVFPPSL gave a protein stability index of 0.683 ± 0.01.
PPPVRFPSLPLA gave a protein stability index of 0.8189 ± 0.0061.
PPPRTPGCPIPP gave a protein stability index of 0.5737 ± 0.0032.
AGRRTGSRESEQ showed a protein stability index of 0.612 ± 0.061.
SAPRFPARFYPL was tested, and the protein stability index was 0.66705 ± 0.0003.
Sequence GRSYCTLVFVWK has a protein stability index of 0.582 ± 0.011.
With KNEKEKKTKMRN the protein stability index was 0.754 ± 0.14.
WRRLVGGVAWLW showed a protein stability index of 0.726 ± 0.08.
In the case of GSGKHVGYIRVK, the protein stability index is reported as 0.656 ± 0.0082.
Work on VAVMPKPLGVVR yielded a protein stability index of 0.552 ± 0.046.
Work on YWPPIRSILPQY yielded a protein stability index of 0.67 ± 0.033.
In the case of FSVVGVFNIYGM, the protein stability index is reported as 0.6214 ± 0.0023.
With ALPLLPPHSLPP the protein stability index was 0.617 ± 0.011.
In the case of LKKEFSGKEIQD, the protein stability index is reported as 0.743 ± 0.049.
For PKRHLTFLPRGV, the protein stability index was 0.662 ± 0.036.
LSFLSDFCLWVL gave a protein stability index of 0.659 ± 0.053.
With GVWPVGWWCRGR the protein stability index was 0.748 ± 0.047.
For SPLLLLPAPPPP, the protein stability index was 0.673 ± 0.014.
Sequence RVFVRFGSCAGG has a protein stability index of 0.679 ± 0.059.
Sequence VARPEWWSGGGS has a protein stability index of 0.727 ± 0.03.
With RLLPCATPHPDL the protein stability index was 0.647 ± 0.015.
For GFWWGCGGFCFC, the protein stability index was 0.685 ± 0.023.
Sequence GPSREFGSNWII has a protein stability index of 0.612 ± 0.034.
In the case of SVPNYDAVGAGD, the protein stability index is reported as 0.667 ± 0.097.
In the case of STLPTHQLPPHS, the protein stability index is reported as 0.624 ± 0.022.
RRKTKTYRSWME was tested, and the protein stability index was 0.649 ± 0.035.
GMYRHEGQSWDL was tested, and the protein stability index was 0.7316 ± 0.0065.
For GRGLVDLLCGWV, the protein stability index was 0.683 ± 0.074.
Work on IGRWHCPDLPRH yielded a protein stability index of 0.653 ± 0.12.
For SKNEFKKIMKKY, the protein stability index was 0.711 ± 0.083.
With LITRLLCSPCSQ the protein stability index was 0.605 ± 0.0059.
Work on IKNRRTSKYLII yielded a protein stability index of 0.548 ± 0.0058.
For GVLSYCGFVTFG, the protein stability index was 0.603 ± 0.02.
SDVAWVEAPPRS was tested, and the protein stability index was 0.678 ± 0.097.
SISLSLSQSDRR showed a protein stability index of 0.614 ± 0.016.
PSPPPLPSPPSL showed a protein stability index of 0.738 ± 0.087.
GCGGRARAGAGG was tested, and the protein stability index was 0.697 ± 0.089.
Work on KDIVSQEEHAPL yielded a protein stability index of 0.678 ± 0.036.
WGAGGGGWGGGV showed a protein stability index of 0.685 ± 0.024.
Work on EFFSDLLEMIRL yielded a protein stability index of 0.725 ± 0.033.
Sequence YPLRVSRCWSPP has a protein stability index of 0.773 ± 0.1.
With SPPLRSRSGSFL the protein stability index was 0.699 ± 0.062.
In the case of RTFVSLLTSSSH, the protein stability index is reported as 0.83 ± 0.17.
In the case of SLPPPSPSPSLS, the protein stability index is reported as 0.649 ± 0.034.
In the case of PDGGPGLLRFVL, the protein stability index is reported as 0.64 ± 0.015.
In the case of STLPPPSSPFHP, the protein stability index is reported as 0.96 ± 0.021.
SPLSLPPPHPPP showed a protein stability index of 0.654 ± 0.0069.
With PPPLPPPPHGVP the protein stability index was 0.6889 ± 0.0066.
For VIMNPGNDFLQK, the protein stability index was 0.702 ± 0.011.
GKKTTQELGKTK gave a protein stability index of 0.803 ± 0.13.
In the case of TDWCSYWSGWVV, the protein stability index is reported as 0.722 ± 0.019.
In the case of SLHSPPHPPPHA, the protein stability index is reported as 0.673 ± 0.011.
In the case of LFPVTAIACRPS, the protein stability index is reported as 0.7266 ± 0.006.
With LFRPSPPRPLPP the protein stability index was 0.651 ± 0.0071.
Sequence LAASVTERPAGR has a protein stability index of 0.703 ± 0.011.
For RSGGYPGLLLFN, the protein stability index was 0.6227 ± 0.0053.
In the case of LGTILGWFSICT, the protein stability index is reported as 0.59 ± 0.007.
In the case of RIVLLICPYPVL, the protein stability index is reported as 0.554 ± 0.056.
Work on EMCRCVEGREEG yielded a protein stability index of 0.6704 ± 0.0036.
With LLFPFLSFLLPL the protein stability index was 0.66 ± 0.037.
With PGPSPVLPPPPP the protein stability index was 0.633 ± 0.038.
PSTPPPRLHPSS gave a protein stability index of 0.642 ± 0.032.
For GSLHPAPDLRTR, the protein stability index was 0.709 ± 0.036.
PPPGPPLPPGLP showed a protein stability index of 0.749 ± 0.033.
Sequence PHLDSPGPLAII has a protein stability index of 0.682 ± 0.023.
AKFERRTIGCSA gave a protein stability index of 0.605 ± 0.0042.
With LSNFLFYGLCPG the protein stability index was 0.651 ± 0.081.
KERYKNHGQKAS showed a protein stability index of 0.683 ± 0.017.
With PSPRPSPPLPSP the protein stability index was 0.647 ± 0.076.
In the case of GYMRMGLCVYSD, the protein stability index is reported as 0.596 ± 0.092.
LVFLGLCGTDFV gave a protein stability index of 0.676 ± 0.12.
CRVNSVRPVYPS showed a protein stability index of 0.7079 ± 0.0049.
In the case of DVGFGWGCGVGG, the protein stability index is reported as 0.736 ± 0.014.
Work on GGGGERGGVKRG yielded a protein stability index of 0.663 ± 0.02.
Sequence MKRRSEGDLLQP has a protein stability index of 0.64 ± 0.047.
LDSPGIDRRSFM gave a protein stability index of 0.737 ± 0.064.
For LSPLPHGLPFST, the protein stability index was 0.736 ± 0.015.
LTNISKIKILRY was tested, and the protein stability index was 0.653 ± 0.032.
PAELGAGYVMGG was tested, and the protein stability index was 0.699 ± 0.022.
RGPGRTPLGRQL gave a protein stability index of 0.68915 ± 0.00044.
Work on GKNIINSKITYK yielded a protein stability index of 0.772 ± 0.043.
Work on SLAPPVILPSHP yielded a protein stability index of 0.659 ± 0.041.
In the case of SGTRDELVFVAV, the protein stability index is reported as 0.6755 ± 0.0061.
RVTMLPSSQRGI gave a protein stability index of 0.651 ± 0.033.
IKVRGEQAEEAE gave a protein stability index of 0.684 ± 0.04.
In the case of PPPPLSLPPVPL, the protein stability index is reported as 0.736 ± 0.012.
SPRRFVVVSGQG was tested, and the protein stability index was 0.643 ± 0.012.
FRGATRPHSGRS gave a protein stability index of 0.676 ± 0.048.
Work on CLIGHFFSVIFY yielded a protein stability index of 0.5239 ± 0.0051.
Sequence SRHIFAPFGLFG has a protein stability index of 0.726 ± 0.056.
